Earlier results, collected in article PMC3478875.
Like-named read-outs stand apart in the source and are kept apart here.

Key:
[1] = biological target: plasminogen (Homo sapiens) (UniProt P00747)
[2] = biological target: plasminogen (Homo sapiens) (UniProt P00747); remark: listed apart in the source
plasmin (Homo sapiens) = plasmin (Homo sapiens) (UniProt P00747)
[3] = biological target: plasminogen (Homo sapiens) (UniProt P00747); remark: listed apart in the source
[4] = biological target: Glu-plasminogen (Homo sapiens) (UniProt P00747)
[5] = biological target: Glu-plasminogen (Homo sapiens) (UniProt P00747); remark: listed apart in the source
[6] = biological target: Lys-plasminogen (Homo sapiens) (UniProt P00747)

## DnaK (from UniProt B8DT62)
[1]
  Kd: 12 nM

## Fructose-1,6-bisphosphate aldolase (from UniProt P9WQA2)
[2]
  Kd: 6.73 nM

## GAPDH (from UniProt Q59906)
Plasmin (Homo sapiens)
  Kd: 25 nM
[3]
  Kd: 220 nM

## Outer surface protein A (OspA) (from UniProt Q09087)
[4]
  Kd: 260000 nM

## alpha-enolase (from UniProt P69949)
[5]
  Kd: 1.6 nM
[6]
  Kd: 127 nM
